Data reported in the Human Domainome abundance scans (Beltran et al. 2025).

B1: REST corepressor 3, residues 87 to 134; numbered along this chain, Q9P2K3 (parent)
chain: DEWTVEDKVLFEQAFSFHGKSFHRIQQMLPDKTIASLVKYYYSWKKTR

Variants of: B1
Assay: abundance fitness (aPCA) (normalised: wild type 0, dead -1); higher = more abundant; growth selection in yeast, the domain comes from the species named
Details: Homo sapiens

Abundance fitness of substitutions, site by site:
D31: P -0.621 | N -0.337 | L -0.314 | W -0.539 | K -0.136 | C -0.45
H18: Y -0.05 | T -0.39 | Q -0.895 | N -0.785 | I 0.283 | L -0.731 | S -0.706 | G -0.764 | V -0.974 | W -0.894
L29: Q -0.692 | K -0.645 | G -0.794 | R -0.771 | W -0.932 | C -0.795 | I -0.315 | F -0.302 | A -0.832
L10: R -0.213 | T -0.723 | I -0.117 | A -0.317 | M 0.745 | K 0.546 | S -0.763 | V -0.051
I34: R -0.374 | P -1.08 | Y -0.508 | D -0.437 | M -0.255 | C -0.869 | K -0.67 | N -0.267 | T -0.644 | S -0.677 | Q -0.768 | L -0.419 | V -0.747 | F -0.036 | G -0.767 | H -0.73 | A -0.845 | E -0.455
K20: L -0.665 | W -0.551 | G -0.278 | M 0.033 | P -0.704 | E -0.353 | S -0.393 | R -0.544 | V -0.737 | T -0.399 | A -0.343 | C -0.337 | N -0.306
A35: I -0.062 | H -0.214 | W -0.439 | Y -0.451 | R -0.016 | D -0.391 | K -0.124 | Q -0.258 | N -0.145 | T 0.073 | C -0.401 | G 0.045 | M -0.203 | F -0.098 | P -0.345 | L -0.113 | E 0.308 | V -0.545
S21: R 0.233 | E 0.261 | D 1.11 | W -0.107 | V -0.323 | N 0.349 | L -0.63 | A 0.221 | C 0.164 | H -0.185 | M -0.344 | Q 0.303 | G -1.12
F17: G -0.793 | D 0.259 | R 0.137 | Y -0.592 | P -0.537 | K 0.207 | L -0.206 | Q -0.654 | I -0.055 | T 0.36 | A -0.307 | C -0.853 | W -0.61 | H -0.207 | N -0.208 | M -0.553 | S 0.262 | E 0.376
T33: C -0.805 | S -0.385 | Q -0.658 | L -0.686 | V -0.776 | P 0.275 | Y -0.708 | A -0.55 | E -0.647 | W -0.693 | R -0.688 | N -0.508 | G -0.265 | K -0.109 | D -0.354 | H -0.781
M28: K -0.686 | Y -0.635 | H -0.364 | E -0.616 | R -0.618 | G -0.806 | P -0.733 | F -0.502 | S -0.517 | T -0.461 | W -0.589 | A -0.382 | Q -0.429 | L -0.558
S36: A -0.504 | C -0.008
R24: G -0.74 | S -0.465 | V -0.508
K32: Y -0.885 | C -0.816 | S -0.972 | H -0.45 | V -0.93 | T -0.819 | P -0.742 | L -0.673 | I -0.978 | N -0.776 | M -0.799 | D -0.903 | A -0.854 | R -0.473 | Q -0.888 | E -0.836 | F -0.814 | G -0.89 | W -0.945
